{
  "source": "patent US20200164014A1",
  "about": "“MESENCHYMAL STEM CELL ATTRACTING AGENT” (Shiseido Company, Ltd., priority 2017, published 2020)",
  "molecules": {"B1": {"name": "IGFBP7: insulin-like growth factor binding protein 7, purchased protein, candidate aging factor (protein, UniProt Q16270 27-282, looked up)", "Insulin-like growth …": "SSSDTCGPCEPASCPPLPPLGCLLGETRDACGCCPMCARGEGEPCGGGGAGRGYCAPGMECVKSRKRRKGKAGAAAGGPGVSGVCVCKSRYPVCGSDGTTYPSGCQLRAASQRAESRGEKAITQVSKGTCEQGPSIVTPPKDIWNVTGAQVYLSCEVIGIPTPVLIWNKVKRGHYGVQRTELLPGDRDNLAIQTRGGPEKHEVTGWVLVSPLSKEDAGEYECHASNSQGQASASAKITVVDALHEIPVKKGEGAEL"}, "B2": {"name": "RSPO4: R-spondin family, member 4, purchased protein, candidate aging factor (protein, UniProt Q2I0M5 20-234, looked up)", "R-spondin-4": "LNRRKKQVGTGLGGNCTGCIICSEENGCSTCQQRLFLFIRREGIRQYGKCLHDCPPGYFGIRGQEVNRCKKCGATCESCFSQDFCIRCKRQFYLYKGKCLPTCPPGTLAHQNTRECQGECELGPWGGWSPCTHNGKTCGSAWGLESRVREAGRAGHEEAATCQVLSESRKCPIQRPCPGERSPGQKKGRKDRRPRKDRKLDRRLDVRPRQPGLQP"}},
  "tested_on": "young fibroblasts",
  "experiment": "Addition of aging factor proteins to young fibroblasts, quantitative RT-PCR",
  "format": "cell-based",
  "details": "protein added at 10 μg/ml vs 0 μg/ml, cultured 2 days",
  "experimental": "Dermal fibroblasts collected from the back skin of an adult were cultured in Dulbecco's Modified Eagle Medium supplemented with 10% FBS. As normal fibroblasts (young fibroblasts), cells with a culture period of less than 1 month and a Pdl<30 were used. The same cells were cultured for 3 months or more and slowly proliferating cells (having a doubling time of less than 0.5/week and a Pdl>50) were used as the senescent fibroblasts. Normal fibroblasts were seeded in the upper layer of a six-well Transwell system (Falcon; Franklin Lakes, N.J.) filled with Dulbecco's Modified Eagle Medium supplemented with 10% FBS to a density of 1250 cells/cm^2. Sub-constructed senescent fibroblasts and normal fibroblasts were each seeded in two wells of the lower layer of the Transwell system. After combining the upper layer and the lower layer of the Transwell system for 2 days under a humidified atmosphere at 37° C. and 5% CO2, the cells in the upper layer and the cells in the lower layer were recovered using Qiazole (Qiagen).\nFrom the recovered cell lysate, RNA was extracted using an RNeasy Protect Kit (Qiagen) according to the product description and […] into cDNA using Superscript VILO (Invitrogen) according to the product description. Real time PCR was performed on LightCycler (Roche) using […] as an internal standard and using primer pairs for the following genes. The cycle threshold (Ct value) calculated using Lightcycler software ver. 3.5 was normalized for each sample GAPDH mRNA.\nProteins of the candidate aging factors (IGFBP 7 and RSPO 4) (purchased from Serotec, R&D SYSTEMS) were added to a medium for culturing young fibroblasts at concentrations of 0 μg/ml and 10 μg/ml, cultured for 2 days, and the cells were collected using Qiazole (Qiagen). The recovered cell lysate was examined for the expression levels of MMP1 and collagen in the same manner as described above for quantitative RT-PCR. IGFBP7 and RSPO4 reduced the expression of collagen and increased the expression of MMP1.",
  "data": [
    {"molecule": "B1", "values": [
      {"measurement": "expression of MMP1", "result": "increased"},
      {"measurement": "expression of collagen", "result": "reduced"}
    ]},
    {"molecule": "B2", "values": [
      {"measurement": "expression of MMP1", "result": "increased"},
      {"measurement": "expression of collagen", "result": "reduced"}
    ]}
  ]
}
